Measurements reported in publication PMC4161437, “Structural Correlates of Rotavirus Cell Entry” (PLoS Pathogens, 2014).

Legend:
[1] = molecular target: T1, rhesus rotavirus (RRV) outer-layer protein VP4, recombinant, wild type (rhesus rotavirus (RRV; G3 serotype), UniProt P12473 1-776, amine-specific Atto dye in some preparations (dye combinations varied)); test: co-sedimentation; recoating: VP4 added to purified DLPs in at least 5-fold excess at pH 5.2 (sodium acetate), 1.5 h at room temperature; then VP7 in at least 3-fold molar excess with calcium, 30 min; recoated particles separated from excess components by cesium chloride gradient centrifugation; SDS-PAGE and fluorescence imaging of the purified particles; conditions: both partners purified
T1 construct: VP4, outer capsid spike protein of rhesus rotavirus (RRV; G3 serotype); recombinant, not cleaved by trypsin when added to DLPs; Recoated particles were treated with trypsin (cleavage to VP8* and VP5*) only after recoating; also called WT VP4; VP4 wt; source: baculovirus-infected insect cells, purified (AmSO4 precipitation, Phenyl HP, HiTrap Q, S200)

[2] = molecular target: T2, rhesus rotavirus (RRV) VP4 hydrophobic-loop mutant V391D, recombinant (rhesus rotavirus (RRV; G3 serotype), UniProt P12473 1-776, V391D); test: as above; conditions: both partners purified
T2 construct: VP4 of rhesus rotavirus (RRV; G3 serotype) with V391D in a hydrophobic loop of VP5*; also called V391D VP4; VP4 fusion-loop mutant; source: baculovirus-infected insect cells, purified (AmSO4 precipitation, Phenyl HP, HiTrap Q, S200)

B1: rhesus rotavirus (RRV) outer-layer glycoprotein VP7, recombinant, wild type (natural protein)
chain: QNYGINLPITGSMDTAYANSTQEETFLTSTLCLYYPTEAATEINDNSWKDTLSQLFLTKGWPTGSVYFKEYTDIASFSVDPQLYCDYNVVLMKYDATLQLDMSELADLILNEWLCNPMDITLYYYQQTDEANKWISMGSSCTIKVCPLNTQTLGIGCLTTDTATFEEVATAEKLVITDVVDGVNHKLDVTTATCTIRNCKKLGPRENVAVIQVGGSDVLDITADPTTAPQTERMMRINWKKWWQVFYTVVDYVNQIIQAMSKRSRSLNSAAFYYRI
modifications: amine-specific Atto dye in some preparations (dye combinations varied)
notes: VP7, outer capsid glycoprotein of rhesus rotavirus (RRV; G3 serotype); Ca2+-stabilized trimer; also called WT VP7; VP7 wt
- binding result [1]: binds
- binding result [2]: binds
